Here are results for five proteins from patent US20150239975A1 (KOREA RESEARCH INSTITUTE OF BIOSCIENCE AND BIOTECHNOLOGY, published 2015).

This series deals with T1, transmembrane 4 L six family member 5 (TM4SF5) protein (human, UniProt O14894 1-197).
T1 sequence (looked up): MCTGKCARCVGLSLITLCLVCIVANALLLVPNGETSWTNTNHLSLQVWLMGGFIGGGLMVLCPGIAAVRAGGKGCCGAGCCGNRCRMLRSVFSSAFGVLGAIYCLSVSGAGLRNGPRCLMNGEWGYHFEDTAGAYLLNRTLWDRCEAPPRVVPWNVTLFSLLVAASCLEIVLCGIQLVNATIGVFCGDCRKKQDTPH
Nature of the series: cell-based or functional assay.

B1: monoclonal antibody #88 (scFv-Fc form) (Fc fusion, not shown: a dimerising Fc or GST)
scFv: QVQLQQFGAELVRPGASVKLSCKASGYTFTDYEMHWVKQTPVHGLEWIGAIDPETGGTAYNQKFKGKATLTADKSSSTAYMELRSLTSEDSAVYYCTPNYWYFDVWGAGTSVTVSSADAVVTQTPLSLPVSLGDQASISCRSSQSLVHSNGNTYLHWYLQKPGQSPKLLIYKVSNRFSGVPDRFSGSGSGTDFTLKISRVEAEDLGVYFCSQSTHVPYTFGGGTKLELK
In the case of B1, the “inhibition of growth of TM4SF5-overexpressing liver cancer cells (Tp, T16) in the absence of serum, 20 µg/mL antibody” value was ~50% and the “inhibition of infiltration of TM4SF5-overexpressing liver cancer cells (Tp), transwell assay, 20 µg/mL antibody” value was determined as 73%.

B2: monoclonal antibody #92 (scFv-Fc form) (Fc fusion, not shown: a dimerising Fc or GST)
scFv: EVQLQQSVADLVRPGASVKLSCTASGFNIENTYMHWVKQRPEQGLEWIGRIDPANGNTKYAPKFQDKATITADTSSNTAYLQLSSLTSEDTAVYYCTSLGAYWGQGTLVTVSAADAVLTQTPLSLPVSLGDQASISCRSSQSIVHSNGNTYLEWYLQKPGQSPKLLIYKVSNRFSGVPDRFSGSGSGTDFTLKISRVEAEDLGVYFCSQSTHVPLTFGAGTKLEIK
For B2, the “inhibition of growth of TM4SF5-overexpressing liver cancer cells (Tp, T16) in the absence of serum, 20 µg/mL antibody” value was ~50% and the “inhibition of infiltration of TM4SF5-overexpressing liver cancer cells (Tp), transwell assay, 20 µg/mL antibody” value amounted to 46%.

B3: monoclonal antibody #27 (scFv-Fc form) (Fc fusion, not shown: a dimerising Fc or GST)
scFv: QVQLQQFGAELVRPGASVTLSCKASGYTFTDYEMHWVKQTPVHGLEWIGAIDPETGGTAYNQKFKGKAILTADKSSSTAYMELRSLTSEDSAVYYCTRPYLGYWGQGTTVTVSSADAVVTQTPLSLPVSLGDQASISCRSSQSLVHSNGNTYLHWYLQKPGQSPKLLIYKVSNRFSGVPDRFSGSGSGTDFTLKISRVEAEDLGVYYCFQGSHIPLTFGAGTKLELK
Turning to B3, the “inhibition of invasion of TM4SF5-overexpressing liver cancer cells (Tp), transwell assay, 20 µg/mL antibody” value (“inhibition of invasion … 20 µg/mL antibody” below) was determined as 56%.

B4: monoclonal antibody #1 (scFv-Fc form) (Fc fusion, not shown: a dimerising Fc or GST)
scFv: EVQLQQFGAELVRPGASVTLSCKASGYTFTDYEMHWVKQTPVHGLEWIGAIDPETGGTAYNQKFKGKAILTADKSSSTAYMELRSLTSEDSAVYFCARLTLFYGNYDWPFDVWGTGTSVTVSSADIVMTQSQKFMSTSVGDRVSITCKASQNVRTAVAWYQQKPGQSPKLLIYWASTRHTGVPDRFTGSGSGTDFTLTISNVQSEDLADYFCQQYSSYPFTFGSGTKLEIK
On to B4, for which the “inhibition of invasion … 20 µg/mL antibody” value is 83%.

B5: monoclonal antibody #79 (scFv-Fc form) (Fc fusion, not shown: a dimerising Fc or GST)
scFv: GVQLQQSGAELVRPGASVKLSCKASGYTFTDYEMHWVKQTPVHGLEWIGAIDPETGGTAYNQKFKGKAILTADKSSSTAYMELRSLTSEDSAVYYCTVYGLAYWGQGTLVTVSAADVVMTQTPLSLPVSLGDQASISCRSSQSLVHSNGNTYLHWYLQKPGQSPKLLIYKVSNRFSGVPDRFSGSGSGTDFTLKISRVEAEDLGVYFCSQNTHVPYTFGGGTKLELK
As to B5, the “inhibition of invasion … 20 µg/mL antibody” value amounted to 49%.
